# From patent publication WO2007044695A2 (dated 2007)
# Target: GD03-S1(318-510)-C9 protein (SARS-CoV GD03 (GD03T0013), UniProt P59594 318-510)
# Experiment: ELISA, serial dilutions of coated S1-(318-510)-C9 protein, 0.5 ug/ml IgG1
binder,measurement,value
"11A IgG1 (antibody, V domains shown) VH: EVQLVQSGAEVKKPGESLKISCKGSGYSFTSYWIGWVRQMPGKGLEWMGIINPDNSDTRFSPSLQGQVTISVDKSINTVYLQWGSLKASDTAMYYCARQGDYSGPSINYWGQGTLVTVSS VL: QSVLTQPASVSGSPGQSITISCTGTSSDVGGYNYVSWYQQHPGKAPKLMIYDVSKRPSGIPERFSGSNSGNTATLTISGTQAMDEADYYCQAWDSNTYVFGTGTKVTVLV",binding result,binds
